Assay results taken from publication PMC7854983.
Read-outs that look alike come from different tables or passages of the source.

Assays:
YY1 (SILAC extract) = assay: pull-down, SILAC MS
GST-tagged YY1(Δ231-290) = GST-tagged YY1(Δ231-290) (UniProt P25490); assay: SEC
YY1 [1] = target: T1, YY1 (Homo sapiens, UniProt P25490 1-414); assay: fluorescence anisotropy
GST-YY1 = GST-YY1 (Homo sapiens, UniProt P25490 1-414); assay: fluorescence anisotropy
YY1 [2] = target: T1, YY1; assay: fluorescence anisotropy; remark: listed apart in the source
YY1 [3] = target: T1, YY1; assay: fluorescence anisotropy; remark: listed apart in the source
YY1 [4] = target: T1, YY1; assay: fluorescence anisotropy; remark: listed apart in the source
YY1 del231-290 [5] = target: T2, YY1 del231-290 (Homo sapiens, UniProt P25490 1-414, del231-290); assay: fluorescence anisotropy
YY1 del231-290 [6] = target: T2, YY1 del231-290; assay: fluorescence anisotropy; remark: listed apart in the source

Molecule: hTEL G4 biotin probe
- binding signal (SILAC ratio G4/M4) (YY1 (SILAC extract)): 2.02

Molecule: cKIT G4 biotin probe
- binding signal (SILAC ratio G4/M4) (YY1 (SILAC extract)): 1.92

Molecule: GST-tagged YY1(Δ231-290) (from UniProt P25490 1-414)
- stoichiometry N (GST-tagged YY1(Δ231-290)): 2

Molecule: cMYC G4 biotin probe
- binding signal (SILAC ratio G4/M4) (YY1 (SILAC extract)): 1.77

Molecule: AAAGGGTTAGTGTTAGTGTTAGGGAA (ssDNA) [hTEL M4]
- binding signal (YY1 [1]): > 10 fold lower affinity than hTEL G4

B1: YY1 consensus motif duplex (dsDNA)
DNA 1: TCCACGGCAGCCGCCATCTTGGCT
DNA 2: AGCCAAGATGGCGGCTGCCGTGGA
- Kd (GST-YY1): 11.6 ± 0.8 nM

Molecule: AGGGAGGGCTCTGTGAGGAGGG (ssDNA) [cKIT M4]
- binding signal (YY1 [2]): > 10 fold lower affinity than cKIT G4

Molecule: AAAGGGTTAGGGTTAGGGTTAGGGAA (structured_DNA) [hTEL G4]
- Kd (YY1 [3]): 82 ± 5.3 nM

Molecule: AGGGAGGGCGCTGGGAGGAGGG (structured_DNA) [cKIT G4]
- Kd (YY1 [3]): 26.7 ± 2.2 nM

Molecule: TGAGGGTGAGGAGTGTGGGGA (ssDNA) [cMYC M4]
- binding signal (YY1 [4]): > 10 fold lower affinity than cMYC G4
- binding signal (YY1 del231-290 [5]): ~10 fold lower affinity than cMYC G4

Molecule: TGAGGGTGGGGAGGGTGGGGA (structured_DNA) [cMYC G4]
- binding result (YY1 del231-290 [6]): binds
- Kd (YY1 [3]): 26.3 ± 2.1 nM
